The text below walks through data of patent US20230220021A1 (UNIVERSITY OF COPENHAGEN, published 2023).

[ ]: non-standard residue; d: D form.

The target in the assay is T1, (7× His)-PSD-95-PDZ2 wild type (UniProt P78352 160-246).
T1 construct: domain: PDZ2; recombinant from E. coli; also called PSD-95-PDZ2 WT; not shown: 7x His tag
The experiment in a line: FP competition.

T1 sequence (P78352 160-246): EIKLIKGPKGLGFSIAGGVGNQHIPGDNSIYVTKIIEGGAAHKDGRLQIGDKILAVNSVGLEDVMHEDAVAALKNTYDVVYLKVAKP

B1: cyclic nNOS β-hairpin peptide H106A (peptide)
peptide: cyclo(TALETTFTGDGTPKTIRVTQ[dP]GQ)
SMILES: CC[C@H](C)[C@@H]1NC(=O)[C@H]([C@@H](C)O)NC(=O)[C@H](CCCCN)NC(=O)[C@@H]2CCCN2C(=O)[C@H]([C@@H](C)O)NC(=O)CNC(=O)[C@H](CC(=O)O)NC(=O)CNC(=O)[C@H]([C@@H](C)O)NC(=O)[C@H](Cc2ccccc2)NC(=O)[C@H]([C@@H](C)O)NC(=O)[C@H]([C@@H](C)O)NC(=O)[C@H](CCC(=O)O)NC(=O)[C@H](CC(C)C)NC(=O)[C@H](C)NC(=O)[C@H]([C@@H](C)O)NC(=O)[C@H](CCC(N)=O)NC(=O)CNC(=O)[C@H]2CCCN2C(=O)[C@H](CCC(N)=O)NC(=O)[C@H]([C@@H](C)O)NC(=O)[C@H](C(C)C)NC(=O)[C@H](CCCNC(=N)N)NC1=O
What is called Ki is the equilibrium dissociation constant of an inhibitor or competing ligand from its target. Lower therefore signals a stronger hold on the target. Consider B1, for which the inhibition constant Ki was 2060 nM and the “Relative Ki (Ki mut/Ki WT)” value worked out at 1.37.

B2: cyclic nNOS β-hairpin peptide T110A (peptide)
peptide: cyclo(THLETAFTGDGTPKTIRVTQ[dP]GQ)
SMILES: CC[C@H](C)[C@@H]1NC(=O)[C@H]([C@@H](C)O)NC(=O)[C@H](CCCCN)NC(=O)[C@@H]2CCCN2C(=O)[C@H]([C@@H](C)O)NC(=O)CNC(=O)[C@H](CC(=O)O)NC(=O)CNC(=O)[C@H]([C@@H](C)O)NC(=O)[C@H](Cc2ccccc2)NC(=O)[C@H](C)NC(=O)[C@H]([C@@H](C)O)NC(=O)[C@H](CCC(=O)O)NC(=O)[C@H](CC(C)C)NC(=O)[C@H](Cc2c[nH]cn2)NC(=O)[C@H]([C@@H](C)O)NC(=O)[C@H](CCC(N)=O)NC(=O)CNC(=O)[C@H]2CCCN2C(=O)[C@H](CCC(N)=O)NC(=O)[C@H]([C@@H](C)O)NC(=O)[C@H](C(C)C)NC(=O)[C@H](CCCNC(=N)N)NC1=O
On to B2, for which the affinity, expressed as Ki, was 3930 nM and the “Relative Ki (Ki mut/Ki WT)” value turned out to be 2.62.

B3: cyclic nNOS β-hairpin peptide R121A (peptide)
peptide: cyclo(THLETTFTGDGTPKTIAVTQ[dP]GQ)
SMILES: CC[C@H](C)[C@@H]1NC(=O)[C@H]([C@@H](C)O)NC(=O)[C@H](CCCCN)NC(=O)[C@@H]2CCCN2C(=O)[C@H]([C@@H](C)O)NC(=O)CNC(=O)[C@H](CC(=O)O)NC(=O)CNC(=O)[C@H]([C@@H](C)O)NC(=O)[C@H](Cc2ccccc2)NC(=O)[C@H]([C@@H](C)O)NC(=O)[C@H]([C@@H](C)O)NC(=O)[C@H](CCC(=O)O)NC(=O)[C@H](CC(C)C)NC(=O)[C@H](Cc2c[nH]cn2)NC(=O)[C@H]([C@@H](C)O)NC(=O)[C@H](CCC(N)=O)NC(=O)CNC(=O)[C@H]2CCCN2C(=O)[C@H](CCC(N)=O)NC(=O)[C@H]([C@@H](C)O)NC(=O)[C@H](C(C)C)NC(=O)[C@H](C)NC1=O
B3: the affinity, expressed as Ki, was 2470 nM and the “Relative Ki (Ki mut/Ki WT)” value amounted to 1.65.

B4: cyclic nNOS β-hairpin peptide P117A (peptide)
peptide: cyclo(THLETTFTGDGTAKTIRVTQ[dP]GQ)
SMILES: CC[C@H](C)[C@@H]1NC(=O)[C@H]([C@@H](C)O)NC(=O)[C@H](CCCCN)NC(=O)[C@H](C)NC(=O)[C@H]([C@@H](C)O)NC(=O)CNC(=O)[C@H](CC(=O)O)NC(=O)CNC(=O)[C@H]([C@@H](C)O)NC(=O)[C@H](Cc2ccccc2)NC(=O)[C@H]([C@@H](C)O)NC(=O)[C@H]([C@@H](C)O)NC(=O)[C@H](CCC(=O)O)NC(=O)[C@H](CC(C)C)NC(=O)[C@H](Cc2c[nH]cn2)NC(=O)[C@H]([C@@H](C)O)NC(=O)[C@H](CCC(N)=O)NC(=O)CNC(=O)[C@H]2CCCN2C(=O)[C@H](CCC(N)=O)NC(=O)[C@H]([C@@H](C)O)NC(=O)[C@H](C(C)C)NC(=O)[C@H](CCCNC(=N)N)NC1=O
B4: the Ki was 1610 nM and the “Relative Ki (Ki mut/Ki WT)” value was 1.07.

B5: cyclic nNOS β-hairpin peptide T105A (peptide)
peptide: cyclo(AHLETTFTGDGTPKTIRVTQ[dP]GQ)
SMILES: CC[C@H](C)[C@@H]1NC(=O)[C@H]([C@@H](C)O)NC(=O)[C@H](CCCCN)NC(=O)[C@@H]2CCCN2C(=O)[C@H]([C@@H](C)O)NC(=O)CNC(=O)[C@H](CC(=O)O)NC(=O)CNC(=O)[C@H]([C@@H](C)O)NC(=O)[C@H](Cc2ccccc2)NC(=O)[C@H]([C@@H](C)O)NC(=O)[C@H]([C@@H](C)O)NC(=O)[C@H](CCC(=O)O)NC(=O)[C@H](CC(C)C)NC(=O)[C@H](Cc2c[nH]cn2)NC(=O)[C@H](C)NC(=O)[C@H](CCC(N)=O)NC(=O)CNC(=O)[C@H]2CCCN2C(=O)[C@H](CCC(N)=O)NC(=O)[C@H]([C@@H](C)O)NC(=O)[C@H](C(C)C)NC(=O)[C@H](CCCNC(=N)N)NC1=O
Regarding B5, affinity was put at a Ki of 1500 nM and the “Relative Ki (Ki mut/Ki WT)” value is 1.

B6: cyclic nNOS β-hairpin peptide I120A (peptide)
peptide: cyclo(THLETTFTGDGTPKTARVTQ[dP]GQ)
SMILES: CC(C)C[C@@H]1NC(=O)[C@H](Cc2c[nH]cn2)NC(=O)[C@H]([C@@H](C)O)NC(=O)[C@H](CCC(N)=O)NC(=O)CNC(=O)[C@H]2CCCN2C(=O)[C@H](CCC(N)=O)NC(=O)[C@H]([C@@H](C)O)NC(=O)[C@H](C(C)C)NC(=O)[C@H](CCCNC(=N)N)NC(=O)[C@H](C)NC(=O)[C@H]([C@@H](C)O)NC(=O)[C@H](CCCCN)NC(=O)[C@@H]2CCCN2C(=O)[C@H]([C@@H](C)O)NC(=O)CNC(=O)[C@H](CC(=O)O)NC(=O)CNC(=O)[C@H]([C@@H](C)O)NC(=O)[C@H](Cc2ccccc2)NC(=O)[C@H]([C@@H](C)O)NC(=O)[C@H]([C@@H](C)O)NC(=O)[C@H](CCC(=O)O)NC1=O
For the molecule B6, the Ki came to 1760 nM and the “Relative Ki (Ki mut/Ki WT)” value was determined as 1.17.

B7: cyclic nNOS β-hairpin peptide T116A (peptide)
peptide: cyclo(THLETTFTGDGAPKTIRVTQ[dP]GQ)
SMILES: CC[C@H](C)[C@@H]1NC(=O)[C@H]([C@@H](C)O)NC(=O)[C@H](CCCCN)NC(=O)[C@@H]2CCCN2C(=O)[C@H](C)NC(=O)CNC(=O)[C@H](CC(=O)O)NC(=O)CNC(=O)[C@H]([C@@H](C)O)NC(=O)[C@H](Cc2ccccc2)NC(=O)[C@H]([C@@H](C)O)NC(=O)[C@H]([C@@H](C)O)NC(=O)[C@H](CCC(=O)O)NC(=O)[C@H](CC(C)C)NC(=O)[C@H](Cc2c[nH]cn2)NC(=O)[C@H]([C@@H](C)O)NC(=O)[C@H](CCC(N)=O)NC(=O)CNC(=O)[C@H]2CCCN2C(=O)[C@H](CCC(N)=O)NC(=O)[C@H]([C@@H](C)O)NC(=O)[C@H](C(C)C)NC(=O)[C@H](CCCNC(=N)N)NC1=O
Take B7: the Ki was 1240 nM and the “Relative Ki (Ki mut/Ki WT)” value came to 0.83.

B8: cyclic nNOS β-hairpin peptide Q124A (peptide)
peptide: cyclo(THLETTFTGDGTPKTIRVTA[dP]GQ)
SMILES: CC[C@H](C)[C@@H]1NC(=O)[C@H]([C@@H](C)O)NC(=O)[C@H](CCCCN)NC(=O)[C@@H]2CCCN2C(=O)[C@H]([C@@H](C)O)NC(=O)CNC(=O)[C@H](CC(=O)O)NC(=O)CNC(=O)[C@H]([C@@H](C)O)NC(=O)[C@H](Cc2ccccc2)NC(=O)[C@H]([C@@H](C)O)NC(=O)[C@H]([C@@H](C)O)NC(=O)[C@H](CCC(=O)O)NC(=O)[C@H](CC(C)C)NC(=O)[C@H](Cc2c[nH]cn2)NC(=O)[C@H]([C@@H](C)O)NC(=O)[C@H](CCC(N)=O)NC(=O)CNC(=O)[C@H]2CCCN2C(=O)[C@H](C)NC(=O)[C@H]([C@@H](C)O)NC(=O)[C@H](C(C)C)NC(=O)[C@H](CCCNC(=N)N)NC1=O
For the molecule B8, the inhibitory constant (Ki) came to 1510 nM and the “Relative Ki (Ki mut/Ki WT)” value was 1.01.

B9: cyclic nNOS β-hairpin peptide T112A (peptide)
peptide: cyclo(THLETTFAGDGTPKTIRVTQ[dP]GQ)
SMILES: CC[C@H](C)[C@@H]1NC(=O)[C@H]([C@@H](C)O)NC(=O)[C@H](CCCCN)NC(=O)[C@@H]2CCCN2C(=O)[C@H]([C@@H](C)O)NC(=O)CNC(=O)[C@H](CC(=O)O)NC(=O)CNC(=O)[C@H](C)NC(=O)[C@H](Cc2ccccc2)NC(=O)[C@H]([C@@H](C)O)NC(=O)[C@H]([C@@H](C)O)NC(=O)[C@H](CCC(=O)O)NC(=O)[C@H](CC(C)C)NC(=O)[C@H](Cc2c[nH]cn2)NC(=O)[C@H]([C@@H](C)O)NC(=O)[C@H](CCC(N)=O)NC(=O)CNC(=O)[C@H]2CCCN2C(=O)[C@H](CCC(N)=O)NC(=O)[C@H]([C@@H](C)O)NC(=O)[C@H](C(C)C)NC(=O)[C@H](CCCNC(=N)N)NC1=O
Take B9: the inhibitory constant (Ki) was found to be 1770 nM and the “Relative Ki (Ki mut/Ki WT)” value is 1.18.

B10: cyclic nNOS β-hairpin peptide L107A (peptide)
peptide: cyclo(THAETTFTGDGTPKTIRVTQ[dP]GQ)
SMILES: CC[C@H](C)[C@@H]1NC(=O)[C@H]([C@@H](C)O)NC(=O)[C@H](CCCCN)NC(=O)[C@@H]2CCCN2C(=O)[C@H]([C@@H](C)O)NC(=O)CNC(=O)[C@H](CC(=O)O)NC(=O)CNC(=O)[C@H]([C@@H](C)O)NC(=O)[C@H](Cc2ccccc2)NC(=O)[C@H]([C@@H](C)O)NC(=O)[C@H]([C@@H](C)O)NC(=O)[C@H](CCC(=O)O)NC(=O)[C@H](C)NC(=O)[C@H](Cc2c[nH]cn2)NC(=O)[C@H]([C@@H](C)O)NC(=O)[C@H](CCC(N)=O)NC(=O)CNC(=O)[C@H]2CCCN2C(=O)[C@H](CCC(N)=O)NC(=O)[C@H]([C@@H](C)O)NC(=O)[C@H](C(C)C)NC(=O)[C@H](CCCNC(=N)N)NC1=O
As for B10, the inhibitory constant (Ki) is 3540 nM and the “Relative Ki (Ki mut/Ki WT)” value turned out to be 2.36.

B11: cyclic nNOS β-hairpin peptide K118A (peptide)
peptide: cyclo(THLETTFTGDGTPATIRVTQ[dP]GQ)
SMILES: CC[C@H](C)[C@@H]1NC(=O)[C@H]([C@@H](C)O)NC(=O)[C@H](C)NC(=O)[C@@H]2CCCN2C(=O)[C@H]([C@@H](C)O)NC(=O)CNC(=O)[C@H](CC(=O)O)NC(=O)CNC(=O)[C@H]([C@@H](C)O)NC(=O)[C@H](Cc2ccccc2)NC(=O)[C@H]([C@@H](C)O)NC(=O)[C@H]([C@@H](C)O)NC(=O)[C@H](CCC(=O)O)NC(=O)[C@H](CC(C)C)NC(=O)[C@H](Cc2c[nH]cn2)NC(=O)[C@H]([C@@H](C)O)NC(=O)[C@H](CCC(N)=O)NC(=O)CNC(=O)[C@H]2CCCN2C(=O)[C@H](CCC(N)=O)NC(=O)[C@H]([C@@H](C)O)NC(=O)[C@H](C(C)C)NC(=O)[C@H](CCCNC(=N)N)NC1=O
For B11, the affinity, expressed as Ki, was 1430 nM and the “Relative Ki (Ki mut/Ki WT)” value turned out to be 0.95.
